Assay results published in the supplement of paper PMC10567573.
± gives the standard deviation.

Assay: protein stability index of a GFP-peptide fusion (GPS, HEK-293T) (PSI 1-6); higher = more stable
[1] = treatment: DMSO, c terminus: a fixed tail appended
[2] = treatment: MLN4924 1 uM, 8 h, c terminus: a fixed tail appended
[3] = treatment: DMSO, c terminus: native
[4] = treatment: MLN4924 1 uM, 8 h, c terminus: native
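Also: 24-mer peptide tiles fused after GFP, lentivirally expressed, FACS-sorted into six equal bins by GFP/DsRed ratio, decoded by Illumina sequencing, PSI is the read-weighted mean bin number.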

| Sequence | protein stability index [1] | protein stability index [2] | protein stability index [3] | protein stability index [4] |
| --- | --- | --- | --- | --- |
| SQEREGLLIVKLEEDCAWSQELPP [ZNF263] | 3.72 ± 0.068 | 3.89 ± 0.18 |  |  |
| SQESALGNTVPAVEPGTPPLDILA [DNAAF3] | 5.17 ± 0.15 | 5.14 ± 0.12 |  |  |
| SQNSSLVQHERIHTGDKPYKCAEC [ZNF8] | 4.58 ± 0.29 | 4.82 ± 0.28 |  |  |
| SQVMGSGRGSLSSGGQTSWDSGCL [PLEKHN1] | 4.02 ± 0.14 | 3.98 ± 0.13 |  |  |
| SREFFNRRGELRHITKLKPWSLFD [SRPK2] | 2.56 ± 0.07 | 2.9 ± 0.32 |  |  |
| SRETQRTPMNHQKAVNDETCKASH [FBXO34] | 5.06 ± 0.09 | 5.17 ± 0.19 |  |  |
| SRHVTTRAALTYTSLEITILTSQP [M1AP] | 2.63 ± 0.51 | 2.6 ± 0.65 |  |  |
| SRLVKYPLLLKEILKHTPKEHPDV [NET1] | 2.71 ± 0.18 | 2.92 ± 0.32 |  |  |
| SRPAVGPPQPGCPAFIIVKLSPLR [ZSWIM9] | 2.59 ± 0.19 | 2.33 ± 0.15 |  |  |
| SRQGSAEALRALQEGLWLDRGTRV [PKD2L1] | 3.6 ± 0.37 | 3.28 ± 0.27 |  |  |
| SRRIPSTDANLPSGGKGFKLRRQP [RAB22A] | 4.09 ± 0.18 | 4.25 ± 0.23 |  |  |
| SRRVLLTNVVTGHRQSFGTNSDVL [DCAF4] | 2.87 ± 0.28 | 3.04 ± 0.26 |  |  |
| SRVILEIDNARLAADDFRLKYENE [KRT15] | 3.62 ± 0.4 | 3.7 ± 0.15 |  |  |
| SSDGSNFGWETKIKAWMDRYEEAN [KMT2E] | 3.79 ± 0.18 | 3.83 ± 0.15 |  |  |
| SSHMNIDITDDCICDLARSIDFNK [PPEF2] | 3.67 ± 0.35 | 3.89 ± 0.19 |  |  |
| SSLRRQFEFSVDSFQIVLDPMLDF [TENT5D] | 2.41 ± 0.32 | 2.17 ± 0.25 |  |  |
| SSPSVSGPRRLVSCLSSQSSALSQ [SPACA3] | 3.4 ± 0.27 | 3.52 ± 0.35 |  |  |
| SSRVIAASYDKTVRAWDLETGKLL [WDR88] | 2.76 ± 0.39 | 3.04 ± 0.29 |  |  |
| SSSGYSSAEINQDLNIQLLKDGYR [FAM219A] | 3.67 ± 0.15 | 3.85 ± 0.22 |  |  |
| SSSNEHAAPAAKTRKQAAKKVAPL [ELOA2] | 4.85 ± 0.32 | 4.92 ± 0.26 |  |  |
| STPFKPLALKTPPRVLTLSERPLD [MFF] | 4.08 ± 0.17 | 4 ± 0.15 |  |  |
| SVAVPPPPPNRMYPPPPPALPSSA [WASL] | 4.5 ± 0.18 | 4.53 ± 0.3 |  |  |
| SVPIIGGFWETIFGNRIKRVKLIS [PHTF1] | 2.29 ± 0.23 | 1.94 ± 0.22 |  |  |

| Sequence | protein stability index [1] | protein stability index [2] | protein stability index [3] | protein stability index [4] |
| --- | --- | --- | --- | --- |
| SVQVDGQARTQKLQGLIPGARYEV [TNXB] | 2.6 ± 0.62 | 3.28 ± 0.26 |  |  |
| SVTRSCLLEEEEESGEEAAEAME [POP5] |  |  | 5.52 ± 0.23 | 5.49 ± 0.12 |
| SWGWDLGRNRLYHDGKNQPSKTYP [SPSB1] | 3.65 ± 0.094 | 3.53 ± 0.34 |  |  |
| SWIKMTKLEYEEIALDLTPVIEEL [FAN1] | 2.83 ± 0.69 | 2.7 ± 0.53 |  |  |
| SYLMLVTVMMWPLAVYHRLWDRAY [RETREG3] | 3.62 ± 0.18 | 2.62 ± 0.6 |  |  |
| SYYDPGRLICDFPFDGLLEERALL [VPS39] | 2.4 ± 0.34 | 2.68 ± 0.29 |  |  |
| TAGDRLTEFRKGAQSLPGPCAAAR [IRX6] | 4.01 ± 0.18 | 4.17 ± 0.58 |  |  |
| TALVGLRQNLSKSWLDVQVSNTYV [TPD52L3] | 2.39 ± 0.96 | 2.19 ± 0.53 |  |  |
| TCECLEGFRLAEDGKRCRRKDVCK [MATN2] | 4.24 ± 0.25 | 4.83 ± 0.28 |  |  |
| TCSFNPGVIVANMTEWKHQRITKQ [GLT8D2] | 3.12 ± 0.11 | 3.06 ± 0.15 |  |  |
| TCTDRSGISTGHWSGEVKDKNVQV [FUT8] | 4.51 ± 0.21 | 4.49 ± 0.16 |  |  |
| TDATAFWWGEWTKWTACSRSCGGG [ADAMTSL2] | 2.24 ± 0.68 | 2.59 ± 0.6 |  |  |
| TDGLQEVPLCSCRMETPKSREITT [EHMT1] | 3.21 ± 0.25 | 3.07 ± 0.26 |  |  |
| TDGRPQDSVAEVAAKARDTGILIF [MATN2] | 2.86 ± 0.23 | 3.12 ± 0.34 |  |  |
| TENRRLESKIREHLEKKGPQVRDW [KRT18] | 3.92 ± 0.16 | 3.95 ± 0.33 |  |  |
| TERGLSRKHIIEGLKASLERLQLE [KCNAB2] | 2.5 ± 0.32 | 2.22 ± 0.19 |  |  |
| TESEIESETDFETEPETAPTTEPE [GNAS] | 5.66 ± 0.2 | 5.68 ± 0.27 |  |  |
| TFLPYTFSLMVTFPDVPLGIFLFC [TMEM175] | 2.49 ± 0.14 | 2.98 ± 0.8 |  |  |
| TFWKEDKAFWKEDNALWERDRNLL [CCDC70] | 2.95 ± 0.12 | 3.2 ± 0.43 |  |  |
| TFYVRFFLTYVPLLGLKAFLGLFF [FADS1] | 2.93 ± 0.3 | 3.24 ± 0.29 |  |  |
| TGERPHQCIECGKSFNRHCNLIRH [ZSCAN9] | 3.13 ± 0.17 | 3.35 ± 0.38 |  |  |
| TGNPKSEEPEVPDQEGLQRITGLS [SPNS1] | 5.35 ± 0.26 | 5.41 ± 0.16 |  |  |
| TGQSKIYSYMSPNKCSGMRFPLQE [KMT5A] | 2.28 ± 0.29 | 2.27 ± 0.11 |  |  |

| Sequence | protein stability index [1] | protein stability index [2] | protein stability index [3] | protein stability index [4] |
| --- | --- | --- | --- | --- |
| THKKCKEEVVSTLDAVQVLSGVSQ [FCHO1] | 3.77 ± 0.23 | 3.64 ± 0.16 |  |  |
| TIDDTISKFRRKDREDSPERCSDS [CLINT1] | 5.5 ± 0.3 | 5.44 ± 0.3 |  |  |
| TILPQEIQSRVQELHPESGEEAVT [ZNF263] | 5.11 ± 0.25 | 5.33 ± 0.28 |  |  |
| TKILQERAVLGANDPEKNFLTTAI [NSDHL] | 3.53 ± 0.14 | 3.38 ± 0.13 |  |  |
| TKLQAQHVSYRELGACVRTAVAQG [SLC25A39] | 3.05 ± 0.42 | 3.29 ± 0.32 |  |  |
| TKPSFESGRRGPPPPPRSRGPPRG [RBMX] | 4.74 ± 0.33 | 4.81 ± 0.29 |  |  |
| TKPVVILPCQHNLCRKCANDIFQA [TRIM63] | 2.36 ± 0.26 | 2.55 ± 0.27 |  |  |
| TLDGRTPLHLAAQRGHYRVARILI [RIPK4] | 1.97 ± 0.44 | 1.92 ± 0.36 |  |  |
| TLGEVPAAESPDPPQSPQGASSLP [MAGEA3] | 5.5 ± 0.22 | 5.37 ± 0.1 |  |  |
| TLGQAWQGYVSDIRRFLSAFHEPQ [DFFB] | 2.29 ± 0.18 | 2.04 ± 0.22 |  |  |
| TLHPISSEELLSLKYENDYPSVIL [ETS1] | 2.55 ± 0.17 | 2.76 ± 0.23 |  |  |
| TLSFNMSDKYPIQDTELPKAEECD [EDARADD] | 4.55 ± 0.39 | 4.36 ± 0.31 |  |  |
| TLVDESDLYNWEVAIFGPPNTLYE [UBE2R2] | 2.71 ± 0.17 | 2.81 ± 0.17 |  |  |
| TMGAVVLSSTLLSFSTAIGRTCIT [MFSD9] | 2.98 ± 0.48 | 3.22 ± 0.29 |  |  |
| TNAGFLQTESELQELSEVLELLSA [FAN1] | 3.04 ± 0.21 | 3.03 ± 0.53 |  |  |
| TNALTHTVAMSTLNFCGPNVINHF [OR3A1] | 2.41 ± 0.57 | 2.47 ± 0.27 |  |  |
| TPQHHEKQYAMQRPNDDSLAFLDK [IQUB] | 4.53 ± 0.23 | 4.58 ± 0.17 |  |  |
| TQARQVMEREFNNLLALGTDRKLD [PPFIA4] | 4.21 ± 0.52 | 4.12 ± 0.38 |  |  |
| TREAHRESSVPVTPSVPPPASQHS [FBF1] | 4.94 ± 0.099 | 5.07 ± 0.12 |  |  |
| TSDGYTALHLAARNGHLATVKLLV [RIPK4] | 2.35 ± 0.57 | 2.25 ± 0.33 |  |  |
| TSDSEGAHVNTLHSGTKRDPKEDV [PHTF1] | 5.51 ± 0.22 | 5.54 ± 0.21 |  |  |
| TSFIRGPNPSKVLQQLLVLQPEQQ [CDS1] | 3.37 ± 0.19 | 3.3 ± 0.095 |  |  |
| TSGNPNGRYGSGYLLASTPESEL [SLC6A17] |  |  | 4.62 ± 0.37 | 4.58 ± 0.2 |

| Sequence | protein stability index [1] | protein stability index [2] | protein stability index [3] | protein stability index [4] |
| --- | --- | --- | --- | --- |
| TSKCGSLKNIRHRPGGGRVKIESV [MAP2] | 3.1 ± 0.21 | 3.3 ± 0.44 |  |  |
| TSPHFSTRHEGSFQVPVLCAVMNV [CD69] | 2.81 ± 0.51 | 2.63 ± 0.59 |  |  |
| TTFRGHTGGVTALCWDPVQRVLFS [WDFY2] | 2.25 ± 0.23 | 2.26 ± 0.23 |  |  |
| TVDLELELQIELLRETKRKYESVL [ARFIP2] | 2.71 ± 0.19 | 2.91 ± 0.22 |  |  |
| TVLLEEETLEASVGPRETEEKVRD [TOR1AIP2] | 5.59 ± 0.21 | 5.51 ± 0.24 |  |  |
| TVTVISPLELMRTKLQAQHVSYRE [SLC25A39] | 2.65 ± 0.41 | 2.81 ± 0.22 |  |  |
| TYEKLSRAMRYYYKREILERVDGR [ELF3] | 2.21 ± 0.4 | 2.26 ± 0.37 |  |  |
| TYLRLIVDHHGTAQLQALRQKEVD [INTS3] | 2.27 ± 0.2 | 2.35 ± 0.3 |  |  |
| TYVDKKRDLLGALKHWRRAMELRH [FEM1A] | 2.28 ± 0.26 | 2.31 ± 0.11 |  |  |
| VAMLGVFLVSAVAHEYIFCFVLGF [SOAT2] | 3.21 ± 0.36 | 3.14 ± 0.5 |  |  |
| VASCMHRQETVDCLKKFNARRKLK [CAMK2A] | 4.05 ± 0.69 | 4.03 ± 0.26 |  |  |
| VCYHYYADWFMSLGVGLLTFASLE [TMEM40] | 3.04 ± 0.18 | 3.08 ± 0.18 |  |  |
| VDISVPPTTDGQKPNKLQCCQNL [RAB11B] |  |  | 4.77 ± 0.31 | 4.93 ± 0.091 |
| VEMLCDQAWGSMLEVPAGSRLNLT [CCDC3] | 2.75 ± 0.28 | 2.96 ± 0.31 |  |  |
| VEQMTKEERQAAQNECQVLKLLNH [NEK8] | 4.59 ± 0.18 | 4.63 ± 0.15 |  |  |
| VEQPKGTEVVRDAVRKLKFARHIK [GULP1] | 3.7 ± 0.11 | 3.77 ± 0.16 |  |  |
| VERAQQVAVQEQEIARREKELEAR [FLOT1] | 5.27 ± 0.36 | 5.3 ± 0.18 |  |  |
| VERPHSGLPGKVFACLSVLFVTVT [KCNG1] | 3.03 ± 0.73 | 2.52 ± 0.38 |  |  |
| VFDNAIRAALISRRHLQFWKSHLK [RHOBTB1] | 2.06 ± 0.63 | 2.4 ± 0.29 |  |  |
| VFSYFLATDMISIFEPPVRNSGII [EFHC1] | 3.65 ± 0.91 | 3.14 ± 0.67 |  |  |
